The source of these data is doi:10.1101/2025.11.10.687702.

In experiment [1] the target is Rab7A(QL)-6xHis (human) (UniProt P51149). As to the kind of experiment: liposome flotation; purified VPS13C construct with SUVs (84.8% POPC, 10% POPE, 5% DGS-NTA, 0.2% Rhodamine-PE) to which His-tagged Rab7A(QL) or ATG7 was tethered; 1 mM GTP, 2 mM Mg2+, room temperature 20 min; OptiPrep gradient, top fraction on SDS-PAGE.
For experiment [2], the target named is human Rab7A-Q67L with an N-terminal Strep tag (human) (UniProt P51149). As to the kind of experiment: pull-down; Strep-Rab7A(Q67L) and FLAG-tagged VPS13C constructs co-expressed in Expi293F; lysate in buffer A with 1 mM GTP and 2 mM MgCl2 on Strep-Tactin XT resin, 2 h at 4 °C, eluted with 50 mM biotin; SDS-PAGE with Coomassie stain and/or anti-FLAG western blot.
human Rab7A-Q67L with an N-terminal Strep tag (human), sequence (P51149 whole entry Q67L): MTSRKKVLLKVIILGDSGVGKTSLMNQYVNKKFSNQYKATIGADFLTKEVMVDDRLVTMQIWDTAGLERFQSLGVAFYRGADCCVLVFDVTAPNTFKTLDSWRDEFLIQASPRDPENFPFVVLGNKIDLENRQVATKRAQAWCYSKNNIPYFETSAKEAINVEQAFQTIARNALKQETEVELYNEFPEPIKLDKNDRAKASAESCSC

VPS13C lacking the amphipathic helices of the ATG2_C motif, C-terminal 3xFLAG, sequence (Q709C8 whole entry): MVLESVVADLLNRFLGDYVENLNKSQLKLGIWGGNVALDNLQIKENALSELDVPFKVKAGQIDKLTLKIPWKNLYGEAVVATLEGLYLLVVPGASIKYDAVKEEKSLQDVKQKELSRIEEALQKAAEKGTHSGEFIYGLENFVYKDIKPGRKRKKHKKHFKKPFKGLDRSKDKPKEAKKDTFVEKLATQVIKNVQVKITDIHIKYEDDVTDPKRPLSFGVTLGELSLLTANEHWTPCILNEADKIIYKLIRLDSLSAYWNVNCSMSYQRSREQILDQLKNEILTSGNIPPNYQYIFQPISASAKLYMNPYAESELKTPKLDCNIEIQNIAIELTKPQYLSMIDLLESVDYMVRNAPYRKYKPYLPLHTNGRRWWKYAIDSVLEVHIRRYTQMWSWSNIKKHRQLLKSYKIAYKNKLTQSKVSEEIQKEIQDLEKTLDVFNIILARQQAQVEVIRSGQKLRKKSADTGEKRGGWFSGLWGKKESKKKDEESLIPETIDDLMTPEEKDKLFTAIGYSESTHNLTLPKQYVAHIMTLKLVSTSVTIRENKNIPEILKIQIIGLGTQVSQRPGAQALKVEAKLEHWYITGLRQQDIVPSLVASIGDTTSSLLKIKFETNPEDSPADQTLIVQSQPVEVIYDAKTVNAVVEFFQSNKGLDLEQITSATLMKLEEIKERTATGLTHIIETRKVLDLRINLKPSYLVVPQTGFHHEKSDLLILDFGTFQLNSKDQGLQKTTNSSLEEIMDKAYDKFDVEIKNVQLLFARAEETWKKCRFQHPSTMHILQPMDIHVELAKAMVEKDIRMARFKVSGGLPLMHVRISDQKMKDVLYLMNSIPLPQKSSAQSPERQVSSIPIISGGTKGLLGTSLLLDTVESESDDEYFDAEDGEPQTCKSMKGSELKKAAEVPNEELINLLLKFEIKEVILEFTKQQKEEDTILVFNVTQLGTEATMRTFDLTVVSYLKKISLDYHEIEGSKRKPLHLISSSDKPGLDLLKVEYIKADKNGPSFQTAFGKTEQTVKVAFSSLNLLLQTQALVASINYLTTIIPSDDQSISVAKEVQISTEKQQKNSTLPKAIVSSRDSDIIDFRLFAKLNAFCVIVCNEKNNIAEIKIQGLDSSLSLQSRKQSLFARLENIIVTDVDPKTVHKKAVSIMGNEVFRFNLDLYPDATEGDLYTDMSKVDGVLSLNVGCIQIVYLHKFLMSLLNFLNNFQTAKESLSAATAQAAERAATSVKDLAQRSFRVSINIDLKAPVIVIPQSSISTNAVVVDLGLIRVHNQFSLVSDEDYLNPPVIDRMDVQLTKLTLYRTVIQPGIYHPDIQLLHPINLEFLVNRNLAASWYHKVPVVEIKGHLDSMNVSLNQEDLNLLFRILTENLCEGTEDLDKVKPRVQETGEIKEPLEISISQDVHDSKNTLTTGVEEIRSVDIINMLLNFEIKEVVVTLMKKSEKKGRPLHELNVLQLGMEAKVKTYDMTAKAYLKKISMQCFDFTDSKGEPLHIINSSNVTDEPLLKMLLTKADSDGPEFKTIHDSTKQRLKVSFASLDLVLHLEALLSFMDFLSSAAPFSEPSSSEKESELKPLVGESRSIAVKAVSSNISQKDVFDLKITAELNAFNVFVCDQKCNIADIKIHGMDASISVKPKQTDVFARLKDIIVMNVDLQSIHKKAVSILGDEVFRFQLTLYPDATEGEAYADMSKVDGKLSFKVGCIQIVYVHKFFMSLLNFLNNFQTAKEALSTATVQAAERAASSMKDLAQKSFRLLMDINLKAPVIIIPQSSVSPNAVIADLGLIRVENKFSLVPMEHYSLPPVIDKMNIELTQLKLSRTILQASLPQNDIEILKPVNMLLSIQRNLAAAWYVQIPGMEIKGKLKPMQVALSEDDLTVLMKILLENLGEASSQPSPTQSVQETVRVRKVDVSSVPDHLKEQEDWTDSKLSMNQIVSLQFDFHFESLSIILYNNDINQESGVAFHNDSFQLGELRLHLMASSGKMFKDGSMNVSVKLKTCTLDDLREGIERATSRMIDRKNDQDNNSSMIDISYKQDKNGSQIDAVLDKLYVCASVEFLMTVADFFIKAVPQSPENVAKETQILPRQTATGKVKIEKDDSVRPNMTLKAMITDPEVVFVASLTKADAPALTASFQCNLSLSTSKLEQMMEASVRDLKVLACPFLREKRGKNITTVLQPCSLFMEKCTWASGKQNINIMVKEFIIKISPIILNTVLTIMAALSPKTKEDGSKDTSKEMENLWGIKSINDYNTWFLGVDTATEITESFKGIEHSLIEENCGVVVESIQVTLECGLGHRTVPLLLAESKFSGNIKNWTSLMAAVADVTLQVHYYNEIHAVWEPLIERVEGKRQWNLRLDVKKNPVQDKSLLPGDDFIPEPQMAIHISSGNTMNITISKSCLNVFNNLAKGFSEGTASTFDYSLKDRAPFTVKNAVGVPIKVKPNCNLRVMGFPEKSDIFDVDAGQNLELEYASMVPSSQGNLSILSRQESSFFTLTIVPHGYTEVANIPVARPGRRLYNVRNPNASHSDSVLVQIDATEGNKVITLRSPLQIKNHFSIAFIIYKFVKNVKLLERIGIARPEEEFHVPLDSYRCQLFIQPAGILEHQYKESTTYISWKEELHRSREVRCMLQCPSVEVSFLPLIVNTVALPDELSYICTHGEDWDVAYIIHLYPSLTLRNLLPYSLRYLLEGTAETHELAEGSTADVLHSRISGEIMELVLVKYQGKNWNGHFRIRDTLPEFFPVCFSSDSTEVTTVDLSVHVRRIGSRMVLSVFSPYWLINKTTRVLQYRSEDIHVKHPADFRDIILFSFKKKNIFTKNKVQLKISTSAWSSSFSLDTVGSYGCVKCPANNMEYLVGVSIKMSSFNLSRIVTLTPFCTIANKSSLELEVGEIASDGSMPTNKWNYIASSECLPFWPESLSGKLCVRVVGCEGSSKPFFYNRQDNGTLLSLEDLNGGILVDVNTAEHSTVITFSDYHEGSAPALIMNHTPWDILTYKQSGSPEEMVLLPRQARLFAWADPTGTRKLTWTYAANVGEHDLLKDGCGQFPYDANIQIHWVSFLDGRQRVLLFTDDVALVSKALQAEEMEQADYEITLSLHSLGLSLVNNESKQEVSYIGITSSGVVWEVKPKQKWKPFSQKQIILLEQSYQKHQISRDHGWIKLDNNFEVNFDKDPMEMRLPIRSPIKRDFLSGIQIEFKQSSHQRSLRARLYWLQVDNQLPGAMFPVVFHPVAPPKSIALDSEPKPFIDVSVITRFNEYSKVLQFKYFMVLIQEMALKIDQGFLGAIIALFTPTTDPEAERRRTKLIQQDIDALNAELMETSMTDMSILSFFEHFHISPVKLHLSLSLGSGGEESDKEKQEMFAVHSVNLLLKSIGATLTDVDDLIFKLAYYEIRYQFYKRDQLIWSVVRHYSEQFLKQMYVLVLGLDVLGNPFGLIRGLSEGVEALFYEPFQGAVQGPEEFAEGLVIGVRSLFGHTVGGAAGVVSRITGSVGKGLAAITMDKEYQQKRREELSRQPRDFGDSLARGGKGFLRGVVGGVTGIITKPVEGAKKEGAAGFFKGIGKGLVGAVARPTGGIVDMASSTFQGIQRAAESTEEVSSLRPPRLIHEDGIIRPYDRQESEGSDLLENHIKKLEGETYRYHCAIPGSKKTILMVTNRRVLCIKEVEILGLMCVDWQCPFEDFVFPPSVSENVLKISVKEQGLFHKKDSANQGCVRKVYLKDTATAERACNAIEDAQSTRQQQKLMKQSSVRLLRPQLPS
Rab7A(QL)-6xHis (human), sequence (P51149 whole entry Q67L): as the sequence (P51149 whole entry Q67L) above

On to “VPS13C lacking the amphipathic helices of the ATG2_C motif, C-terminal 3xFLAG (from UniProt Q709C8 1-3753) (natural protein)”, for which the percent co-floated with SUVs bearing His-tagged Rab7A in experiment [1] was over 80%.

With “full-length human VPS13C with a C-terminal 3xFLAG tag, Q709C8 1-3753”, the fraction of total overexpressed VPS13C retained by Rab7(Q67L) in experiment [2] is 5%.
